Measured values as given in patent publication US20230242607A1 (EUTILEX, published 2023).
Where a chain is given by its changes, count along the chain named.

T1: IL2-RB (UniProt P14784 27-239, limits assumed)
T1 construct: Bought recombinant protein (Sino); also called CD122; IL-2Rβ
T1 sequence (looked up): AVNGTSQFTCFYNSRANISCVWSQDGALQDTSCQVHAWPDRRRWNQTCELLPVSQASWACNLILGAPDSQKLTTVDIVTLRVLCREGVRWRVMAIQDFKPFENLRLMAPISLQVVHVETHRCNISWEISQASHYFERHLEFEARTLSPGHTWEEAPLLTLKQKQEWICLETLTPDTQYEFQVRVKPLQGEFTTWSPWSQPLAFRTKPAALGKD

T2: IL2-RA (UniProt P01589 22-213, limits assumed)
T2 construct: Bought recombinant protein (Sino); also called CD25; IL-2Rα
T2 sequence (looked up): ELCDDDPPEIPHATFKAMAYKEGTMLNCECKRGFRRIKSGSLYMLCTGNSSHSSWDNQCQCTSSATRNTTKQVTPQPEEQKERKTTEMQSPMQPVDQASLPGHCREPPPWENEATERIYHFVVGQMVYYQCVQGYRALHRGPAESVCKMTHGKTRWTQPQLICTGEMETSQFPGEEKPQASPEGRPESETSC

B1: IL2_V1 Fc fusion protein (Fc fusion)
chain: APTSSSTKKTQLQLEHLLLDLQMILNGINNYKNPKLTAMLTKKFYMPKKATELKHLQCLEEELKPLEEVLNLAQSKNFHLDPRDVVSNINVFVLELKGSETTFMCEYADETATIVEFLNRWITFCQSIISTLTGGGGSSNTKVDKRVEPKSCDKTHTCPPCPAPPVAGPSVFLFPPKPKDTLMISRTPEVTCVVVDVSHEDPEVQFNWYVDGVEVHNAKTKPREEQFNSTFRVVSVLTVVHQDWLNGKEYKCKVSNKGLPAPIEKTISKTKGQPREPQVYTLPPSREEMTKNQVSLTCLVKGFYPSDIAVEWESNGQPENNYKTTPPMLDSDGSFFLYSKLTVDKSRWQQGNVFSCSVMHEALHNHYTQKSLSLSPGK
B2: supMD IL-2 Fc fusion protein (Fc fusion)
chain: B1 chain with L80F
B3: IL2_V3 Fc fusion protein (Fc fusion)
chain: B1 chain with L80F, V85L
B4: IL2_V5 Fc fusion protein (Fc fusion)
chain: B1 chain with L80F, F92I
B5: IL2_V4 Fc fusion protein (Fc fusion)
chain: B1 chain with L80F, V86I
B6: IL2_V2 Fc fusion protein (Fc fusion)
chain: B1 chain with L80F, D81R
B7: IL2_V4_R38A Fc fusion protein (Fc fusion)
chain: B1 chain with K42F, L80F, V86I
B8: IL2_V4_F42A Fc fusion protein (Fc fusion)
chain: B1 chain with A38R, K42A, L80F, V86I
B9: IL2_V4_R38A_F42A Fc fusion protein (Fc fusion)
chain: B1 chain with K42A, L80F, V86I

Each binder was assayed against T1, IL2-RB (assay: SPR, Biacore T200; IL-2-Fc on CM5 chip, receptor injected; 1:1 model).
Experimental: The affinity of IL-2 variants to IL-2 receptors, IL2-RA and IL2-RB, was analyzed using surface plasmon resonance (SPR). The IL-2 variants were diluted to a concentration of 2 ug/mL then immobilized on CM5 chip (GE Healthcare, Cat#BR-1005-30). The receptors IL-2RA or IL-2RB (Sino) were injected at concentrations 100, 50, 25, 12.5, 6.25, 3.125 nM with an association time of 150 seconds and dissociation time of 240 seconds. Biacore T200 (GE healthcare) was used to measure and analyze affinity of each IL-2 variant, where the results were analyzed with a 1:1 binding model by BIAevaluation software.

Binder | Kd [nM] | koff [s⁻¹] | kon [M⁻¹ s⁻¹]
B1 | 66.6 | 0.0116 | 174000
B2 | 29.5 | 0.004 | 136000
B3 | 218 | 0.0179 | 82400
B4 | 76.7 | 0.00936 | 122000
B5 | 29 | 0.00511 | 176000
B6 | 124 | 0.0158 | 128000

What follows are binders tested against T2, IL2-RA in the same assay as above.
Experimental: (§1) The affinity of additional IL-2 variants to IL-2 receptors, IL2-RA and IL2-RB, was analyzed using surface plasmon resonance (SPR). The IL-2 variants were diluted to a concentration of 2 ug/mL then immobilized on CM5 chip (GE Healthcare, Cat#BR-1005-30). Biacore T200 (GE healthcare) was used to measure and analyze affinity of each IL-2 variant, where the results were analyzed with a 1:1 binding model by BIAevaluation software, as described in Example 4.

Binder | Kd [nM] | koff [s⁻¹] | kon [M⁻¹ s⁻¹]
B7 | 3.31 | 0.00227 | 685000
B8 | 6.75 | 0.000789 | 117000
B9 | 1230 | 0.00562 | 4560

Target: T1, IL2-RB
Experiment: as above
Remark: another data set of the same source
Experimental: as §1

Binder | Kd [nM] | koff [s⁻¹] | kon [M⁻¹ s⁻¹]
B7 | 7.33 | 0.00556 | 759000
B8 | 9.43 | 0.00492 | 522000
B9 | 7.5 | 0.00504 | 671000
B5 | 8.99 | 0.00532 | 592000
